Assays:
[1] = biological target: TGFβ1 (R&D systems) (UniProt P01137); assay: cell-based or functional assay
[2] = biological target: IL-18/TF/IL-15:IL-12/IL-15RαSu protein complex (18t15-12s) (human); assay: sandwich ELISA; the concentration is that of the titrated 18t15-12s; anti-human tissue factor capture, BAM 247 detection at a fixed concentration
[3] = biological target: IL-18/TF/IL-15:IL-12/IL-15RαSu protein complex (18t15-12s) (human); assay: sandwich ELISA; the concentration is that of the titrated 18t15-12s; anti-human tissue factor capture, D045-6 detection at a fixed concentration
[4] = biological target: IL-2Rα, IL-2Rβ and common γ chain on CTLL-2 cells; assay: cell-based or functional assay
[5] = biological target: IL-2Rβ and common γ chain on 32Dβ cells; assay: cell-based or functional assay

Chain of IL-18/TF/IL-15:IL-12/IL-15RαSu protein complex (18t15-12s) (human) (chain, as listed by the source, chain 1 of 2): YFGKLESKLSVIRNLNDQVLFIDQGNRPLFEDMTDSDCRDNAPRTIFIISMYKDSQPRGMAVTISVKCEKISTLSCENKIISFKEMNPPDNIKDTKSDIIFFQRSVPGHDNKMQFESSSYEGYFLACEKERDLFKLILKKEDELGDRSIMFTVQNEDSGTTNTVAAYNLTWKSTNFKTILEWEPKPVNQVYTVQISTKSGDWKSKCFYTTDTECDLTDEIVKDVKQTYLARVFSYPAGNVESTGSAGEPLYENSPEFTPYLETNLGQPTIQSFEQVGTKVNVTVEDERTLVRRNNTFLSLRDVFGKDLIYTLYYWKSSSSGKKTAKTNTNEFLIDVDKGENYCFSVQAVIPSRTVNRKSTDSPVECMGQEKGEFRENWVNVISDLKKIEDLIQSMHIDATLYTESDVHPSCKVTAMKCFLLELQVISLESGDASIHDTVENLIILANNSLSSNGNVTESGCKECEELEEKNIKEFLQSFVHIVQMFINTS
Chain of IL-18/TF/IL-15:IL-12/IL-15RαSu protein complex (18t15-12s) (human) (chain, as listed by the source, chain 2 of 2): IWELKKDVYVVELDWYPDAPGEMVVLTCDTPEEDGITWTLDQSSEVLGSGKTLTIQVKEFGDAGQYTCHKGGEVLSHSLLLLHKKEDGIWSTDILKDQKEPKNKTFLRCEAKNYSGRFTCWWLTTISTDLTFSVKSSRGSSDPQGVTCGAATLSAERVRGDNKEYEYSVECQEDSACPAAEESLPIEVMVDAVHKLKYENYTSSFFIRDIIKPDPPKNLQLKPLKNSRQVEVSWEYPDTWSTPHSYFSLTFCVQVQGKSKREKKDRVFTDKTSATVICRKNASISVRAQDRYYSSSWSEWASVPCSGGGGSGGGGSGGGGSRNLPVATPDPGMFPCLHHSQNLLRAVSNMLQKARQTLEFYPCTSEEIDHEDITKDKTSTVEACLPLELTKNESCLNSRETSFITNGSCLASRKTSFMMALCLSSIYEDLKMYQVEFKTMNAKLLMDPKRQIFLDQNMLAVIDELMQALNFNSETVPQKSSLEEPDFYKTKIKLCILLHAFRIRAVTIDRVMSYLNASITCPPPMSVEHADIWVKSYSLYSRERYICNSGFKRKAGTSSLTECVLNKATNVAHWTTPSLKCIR
Chain of UniProt P01137 (P01137 279-390 limits assumed): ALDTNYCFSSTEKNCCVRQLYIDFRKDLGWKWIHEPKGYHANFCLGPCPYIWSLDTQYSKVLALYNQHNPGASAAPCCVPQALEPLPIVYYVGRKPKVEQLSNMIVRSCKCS

EC50, CTLL-2 cell proliferation (WST1) [4]	EC50, 32Dβ cell proliferation (WST1) [5]	Substance	other results
		TGFR-Fc (R&D Systems) (Fc fusion)	IC50, inhibition of TGFβ1 activity in HEK-Blue TGFβ reporter cells (QUANTI-Blue OD) [1]: 0.461 nM
		biotinylated anti-human IL-15 detection antibody (BAM 247)	EC50 (read off the curve) [2]: 0.01 µg/mL
		biotinylated anti-human IL-18 detection antibody (D045-6)	EC50 (read off the curve) [3]: 0.03 µg/mL
0.253 nM	0.0655 nM	recombinant IL2 (Proleukin) (from UniProt P60568 22-153) (ligand)	
0.548 nM	0.14 nM	recombinant IL-2 (from UniProt P60568 21-153) (ligand)	
	0.0106 nM	recombinant IL-15 (from UniProt P40933 49-162) (ligand)	

Source: patent US20210338724A1
